Patent publication US20220213456

Legend:
Experiment in all cases: cleavage_in_vitro
[1] = system: T1, OMNI-35 (Bartonella apis); conditions: TXTL; PAM NRR; V1, V2 tested
T1 sequence: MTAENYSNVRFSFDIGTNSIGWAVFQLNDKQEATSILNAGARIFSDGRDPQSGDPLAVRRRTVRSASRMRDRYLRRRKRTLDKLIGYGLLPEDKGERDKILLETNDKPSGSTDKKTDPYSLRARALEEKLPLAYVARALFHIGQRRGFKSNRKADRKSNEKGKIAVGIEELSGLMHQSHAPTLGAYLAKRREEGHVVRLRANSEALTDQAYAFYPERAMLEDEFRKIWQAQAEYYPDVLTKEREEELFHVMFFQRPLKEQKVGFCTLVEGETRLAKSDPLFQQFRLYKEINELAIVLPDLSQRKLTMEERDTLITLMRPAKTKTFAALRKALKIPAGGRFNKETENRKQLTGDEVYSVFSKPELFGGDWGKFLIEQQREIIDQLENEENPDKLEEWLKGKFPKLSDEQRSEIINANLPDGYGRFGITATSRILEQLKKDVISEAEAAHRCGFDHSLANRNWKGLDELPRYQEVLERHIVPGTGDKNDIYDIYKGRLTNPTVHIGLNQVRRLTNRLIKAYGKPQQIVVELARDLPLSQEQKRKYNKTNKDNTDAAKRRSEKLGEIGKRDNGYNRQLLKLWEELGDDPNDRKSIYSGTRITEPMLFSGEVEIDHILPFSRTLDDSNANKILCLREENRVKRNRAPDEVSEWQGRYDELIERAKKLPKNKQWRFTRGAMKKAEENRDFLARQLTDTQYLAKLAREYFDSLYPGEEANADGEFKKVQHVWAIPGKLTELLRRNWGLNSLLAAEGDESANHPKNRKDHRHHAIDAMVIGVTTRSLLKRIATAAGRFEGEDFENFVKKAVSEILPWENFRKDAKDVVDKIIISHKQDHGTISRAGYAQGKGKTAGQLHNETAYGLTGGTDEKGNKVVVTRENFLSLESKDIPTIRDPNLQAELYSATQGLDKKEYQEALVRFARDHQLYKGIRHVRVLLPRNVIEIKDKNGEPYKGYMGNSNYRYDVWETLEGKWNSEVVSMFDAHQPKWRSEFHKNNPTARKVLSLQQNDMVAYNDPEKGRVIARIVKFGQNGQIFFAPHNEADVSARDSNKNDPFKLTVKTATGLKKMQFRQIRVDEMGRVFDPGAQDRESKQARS

[2] = system: T2, OMNI-34 (Alistipes sp. An54); conditions: TXTL; PAM NRNNNNAA; sgRNA V1-V3 tested
T2 sequence: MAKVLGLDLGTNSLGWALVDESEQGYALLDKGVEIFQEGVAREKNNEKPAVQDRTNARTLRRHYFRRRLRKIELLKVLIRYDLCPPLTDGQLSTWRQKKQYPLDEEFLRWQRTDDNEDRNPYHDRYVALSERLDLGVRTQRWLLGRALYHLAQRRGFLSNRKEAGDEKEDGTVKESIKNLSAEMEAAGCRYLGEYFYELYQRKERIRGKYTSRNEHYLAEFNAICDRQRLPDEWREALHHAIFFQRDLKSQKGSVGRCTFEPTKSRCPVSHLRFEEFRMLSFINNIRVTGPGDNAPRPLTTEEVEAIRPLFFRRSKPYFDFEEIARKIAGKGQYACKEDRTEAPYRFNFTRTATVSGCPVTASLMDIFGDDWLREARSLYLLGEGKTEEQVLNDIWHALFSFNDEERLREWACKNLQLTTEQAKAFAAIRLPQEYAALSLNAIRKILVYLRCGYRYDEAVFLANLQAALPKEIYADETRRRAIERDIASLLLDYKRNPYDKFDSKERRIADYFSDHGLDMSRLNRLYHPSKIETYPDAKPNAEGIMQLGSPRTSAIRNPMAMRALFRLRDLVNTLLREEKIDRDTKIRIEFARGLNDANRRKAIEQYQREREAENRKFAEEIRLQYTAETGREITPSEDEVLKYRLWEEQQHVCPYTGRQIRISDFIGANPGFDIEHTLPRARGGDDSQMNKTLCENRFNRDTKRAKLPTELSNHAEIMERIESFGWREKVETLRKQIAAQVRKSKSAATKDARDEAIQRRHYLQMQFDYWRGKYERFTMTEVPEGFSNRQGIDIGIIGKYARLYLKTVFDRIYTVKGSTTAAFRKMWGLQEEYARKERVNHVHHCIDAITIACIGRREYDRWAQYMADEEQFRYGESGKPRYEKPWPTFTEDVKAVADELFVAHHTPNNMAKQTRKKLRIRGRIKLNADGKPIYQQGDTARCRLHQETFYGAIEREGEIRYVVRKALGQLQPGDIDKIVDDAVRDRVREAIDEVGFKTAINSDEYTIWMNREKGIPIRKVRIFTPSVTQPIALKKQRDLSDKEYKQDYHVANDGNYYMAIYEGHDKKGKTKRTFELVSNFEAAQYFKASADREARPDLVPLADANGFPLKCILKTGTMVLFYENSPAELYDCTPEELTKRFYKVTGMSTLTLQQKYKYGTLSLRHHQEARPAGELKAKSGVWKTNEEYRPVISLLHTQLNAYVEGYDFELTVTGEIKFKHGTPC

[3] = system: T3, OMNI-52 (Butyrivibrio sp. NC3005); conditions: TXTL; PAM NRRADT
T3 sequence: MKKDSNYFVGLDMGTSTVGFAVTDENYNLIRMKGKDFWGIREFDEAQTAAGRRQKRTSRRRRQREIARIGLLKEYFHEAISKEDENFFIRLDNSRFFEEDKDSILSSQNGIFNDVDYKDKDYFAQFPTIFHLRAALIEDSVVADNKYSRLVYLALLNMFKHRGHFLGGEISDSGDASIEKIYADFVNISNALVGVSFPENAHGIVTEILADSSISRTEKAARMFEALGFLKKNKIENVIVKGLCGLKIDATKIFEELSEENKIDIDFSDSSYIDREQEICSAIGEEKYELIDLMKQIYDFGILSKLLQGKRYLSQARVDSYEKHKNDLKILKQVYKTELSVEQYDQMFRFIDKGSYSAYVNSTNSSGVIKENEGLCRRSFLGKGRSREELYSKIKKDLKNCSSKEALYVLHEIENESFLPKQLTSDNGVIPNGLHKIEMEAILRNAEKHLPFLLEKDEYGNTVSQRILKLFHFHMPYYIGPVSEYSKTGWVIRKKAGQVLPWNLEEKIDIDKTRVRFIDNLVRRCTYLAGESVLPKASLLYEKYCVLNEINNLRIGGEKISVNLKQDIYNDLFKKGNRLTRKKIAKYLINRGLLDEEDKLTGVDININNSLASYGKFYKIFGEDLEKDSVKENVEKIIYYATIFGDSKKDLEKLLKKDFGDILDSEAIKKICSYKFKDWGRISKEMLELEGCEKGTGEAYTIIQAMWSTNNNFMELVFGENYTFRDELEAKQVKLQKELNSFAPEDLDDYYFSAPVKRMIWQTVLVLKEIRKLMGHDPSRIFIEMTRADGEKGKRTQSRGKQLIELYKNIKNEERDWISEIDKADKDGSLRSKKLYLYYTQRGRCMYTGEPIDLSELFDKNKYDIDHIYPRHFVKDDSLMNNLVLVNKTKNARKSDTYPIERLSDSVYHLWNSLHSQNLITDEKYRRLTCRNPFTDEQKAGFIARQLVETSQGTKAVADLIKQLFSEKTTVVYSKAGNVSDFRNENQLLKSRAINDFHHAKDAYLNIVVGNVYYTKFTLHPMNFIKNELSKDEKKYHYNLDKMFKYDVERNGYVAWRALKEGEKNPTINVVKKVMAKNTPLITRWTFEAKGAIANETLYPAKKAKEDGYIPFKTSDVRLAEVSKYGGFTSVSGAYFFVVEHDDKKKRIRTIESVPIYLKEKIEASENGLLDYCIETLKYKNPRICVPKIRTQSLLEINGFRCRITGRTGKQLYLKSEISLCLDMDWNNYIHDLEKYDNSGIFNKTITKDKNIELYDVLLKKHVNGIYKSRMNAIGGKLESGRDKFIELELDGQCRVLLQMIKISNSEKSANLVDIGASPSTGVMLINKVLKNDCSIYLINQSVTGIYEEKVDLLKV

[4] = system: T4, OMNI-51 (Bacteroides coagulans); conditions: TXTL; PAM NRRAAA
T4 sequence: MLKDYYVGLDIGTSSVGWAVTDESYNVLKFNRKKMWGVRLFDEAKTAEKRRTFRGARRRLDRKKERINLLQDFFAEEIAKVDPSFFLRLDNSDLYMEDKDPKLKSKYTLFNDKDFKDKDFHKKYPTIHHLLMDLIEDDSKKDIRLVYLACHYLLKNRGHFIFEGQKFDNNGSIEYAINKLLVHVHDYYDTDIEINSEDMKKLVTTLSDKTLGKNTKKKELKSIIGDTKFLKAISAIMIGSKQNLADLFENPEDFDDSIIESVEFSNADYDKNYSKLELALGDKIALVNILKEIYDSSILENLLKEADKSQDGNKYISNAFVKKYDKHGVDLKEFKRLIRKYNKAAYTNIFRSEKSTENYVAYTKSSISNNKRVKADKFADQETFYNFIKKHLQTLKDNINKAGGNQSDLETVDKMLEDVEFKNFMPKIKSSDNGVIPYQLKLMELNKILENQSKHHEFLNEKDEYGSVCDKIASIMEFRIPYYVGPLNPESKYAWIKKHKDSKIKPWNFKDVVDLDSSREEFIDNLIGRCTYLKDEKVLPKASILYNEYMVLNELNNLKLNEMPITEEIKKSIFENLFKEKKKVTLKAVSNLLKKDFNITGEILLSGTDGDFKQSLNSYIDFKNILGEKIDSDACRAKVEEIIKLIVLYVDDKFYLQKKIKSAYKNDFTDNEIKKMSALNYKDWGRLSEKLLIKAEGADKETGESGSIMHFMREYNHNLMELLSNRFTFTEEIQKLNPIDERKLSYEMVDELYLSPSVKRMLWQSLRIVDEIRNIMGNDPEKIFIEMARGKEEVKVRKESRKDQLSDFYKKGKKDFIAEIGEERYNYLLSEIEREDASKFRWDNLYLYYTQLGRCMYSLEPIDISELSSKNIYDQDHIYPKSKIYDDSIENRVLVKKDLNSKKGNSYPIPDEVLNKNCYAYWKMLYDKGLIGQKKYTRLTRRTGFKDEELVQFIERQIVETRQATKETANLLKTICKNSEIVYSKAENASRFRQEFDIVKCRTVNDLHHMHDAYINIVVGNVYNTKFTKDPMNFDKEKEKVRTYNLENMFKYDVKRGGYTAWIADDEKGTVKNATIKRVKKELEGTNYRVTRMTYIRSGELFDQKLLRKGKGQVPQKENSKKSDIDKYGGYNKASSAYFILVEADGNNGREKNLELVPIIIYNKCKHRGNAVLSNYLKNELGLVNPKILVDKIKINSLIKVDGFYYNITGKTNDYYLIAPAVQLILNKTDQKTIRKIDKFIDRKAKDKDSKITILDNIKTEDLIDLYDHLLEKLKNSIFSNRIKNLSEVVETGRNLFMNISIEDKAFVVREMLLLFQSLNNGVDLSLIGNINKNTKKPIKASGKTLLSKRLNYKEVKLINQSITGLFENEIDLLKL

GGAAGAGCAGAGCCUUGGUCUCGUUGCGGCUUGACCGCGAAAGCGGUCUGGCUGUUAACAAGCUAGAUAUGCACCAAAUAAGACAGCUCCUCCGGGGGCUGUUUUUU / GGAAGAGCAGAGCCTTGGTCTCNNNNNNNN / NNNNNNNNGAGACCAAGGCTCTGCTCTTCC [OMNI-35 T2 sgRNA V1 ; pbPOS T2 protospacer 8N PAM library]
activity (1-depletion score) [1]: 0.97

GGAAGAGCAGAGCCUUGGUCUCGUUGUGGUUUGAUGUAGAAAUACAUCUUACCACAAUAAGGCUAUAUGCCGAAGGUUUUCAACCUACCGUCUCCGCGUAUUCCGUGGAGACUUUUUU / GGAAGAGCAGAGCCTTGGTCTCNNNNNNNN / NNNNNNNNGAGACCAAGGCTCTGCTCTTCC [OMNI-34 T2 sgRNA V1 ; pbPOS T2 protospacer 8N PAM library]
activity (1-depletion score) [2]: 0.82

GGAAGAGCAGAGCCUUGGUCUCGUUUGAGAGCUUUGGAAACAAAGCGAGUGCAAAUAAGGUUUUACCGGAAUCGUCUUUAUUAAGAACCGCAUGGUGCGGAUUAUUUAGAAGCCAUUUAGAUGGCUUCUAUUUU / GGAAGAGCAGAGCCTTGGTCTCNNNNNNNN / NNNNNNNNGAGACCAAGGCTCTGCTCTTCC [OMNI-52 T2 sgRNA V1 ; pbPOS T2 protospacer 8N PAM library]
activity (1-depletion score) [3]: 1

GGAAGAGCAGAGCCUUGGUCUCGUUUGAGAGUUAUGGAAACAUGACAGAGUUCAAAUAAAAAUUUAUUCAAACCGCCUAUUUAAUUAUAGGCCGCAGAUGUUCUGCACUAUGCUUGCAAGGUUGCAAGCUUUUUU / GGAAGAGCAGAGCCTTGGTCTCNNNNNNNN / NNNNNNNNGAGACCAAGGCTCTGCTCTTCC [OMNI-51 T2 sgRNA V1 ; pbPOS T2 protospacer 8N PAM library]
activity (1-depletion score) [4]: 1
